This assay deals with RDO24_mFab2 (mouse, UniProt P01863 = IgG part). Description: SPR. A general note: In SPR one partner is held on a chip, and binding of the other changes the refractive index at the surface.

The values below come from article PMC8679783 (2021).

B1: recombinant human MET ECD-Fc (Recombinant Human HGFR/c-MET Fc Chimera His-tag Protein) (Fc fusion)
chain: ECKEALAKSEMNVNMKYQLPNFTAETPIQNVILHEHHIFLGATNYIYVLNEEDLQKVAEYKTGPVLEHPDCFPCQDCSSKANLSGGVWKDNINMALVVDTYYDDQLISCGSVNRGTCQRHVFPHNHTADIQSEVHCIFSPQIEEPSQCPDCVVSALGAKVLSSVKDRFINFFVGNTINSSYFPDHPLHSISVRRLKETKDGFMFLTDQSYIDVLPEFRDSYPIKYVHAFESNNFIYFLTVQRETLDAQTFHTRIIRFCSINSGLHSYMEMPLECILTEKRKKRSTKKEVFNILQAAYVSKPGAQLARQIGASLNDDILFGVFAQSKPDSAEPMDRSAMCAFPIKYVNDFFNKIVNKNNVRCLQHFYGPNHEHCFNRTLLRNSSGCEARRDEYRTEFTTALQRVDLFMGQFSEVLLTSISTFIKGDLTIANLGTSEGRFMQVVVSRSGPSTPHVNFLLDSHPVSPEVIVEHTLNQNGYTLVITGKKITKIPLNGLGCRHFQSCSQCLSAPPFVQCGWCHDKCVRSEECLSGTWTQQICLPAIYKVFPNSAPLEGGTRLTICGWDFGFRRNNKFDLKKTRVLLGNESCTLTLSESTMNTLKCTVGPAMNKHFNMSIIISNGHGTTQYSTFSYVDPVITSISPKYGPMAGGTLLTLTGNYLNSGNSRHISIGGKTCTLKSVSNSILECYTPAQTISTEFAVKLKIDLANRETSIFSYREDPIVYEIHPTKSFISGGSTITGVGKNLNSVSVPRMVINVHEAGRNFTVACQHRSNSEIICCTTPSLQQLNLQLPLKTKAFFMLDGILSKYFDLIYVHNPVFKPFEKPVMISMGNENVLEIKGNDIDPEAVKGEVLKVGNKSCENIHLHSEAVLCTVPNDLLKLNSELNIEWKQAISSTVLGKVIVQPDQNFT
In the case of B1, the koff is 0.000335 s⁻¹.

Broadly, the koff is a measure of how fast the partners let go of each other. The low end stands for a long-lived complex, the high end for a short-lived complex.
